Residue numbers refer to the chain shown, from its start. Where two headings read alike, the source gives them in different places.
B1: E48 (designed binder)
10Fn3 domain: MGVSDVPRDLEVVAATPTSLLISWRSSATAYQYYRITYGETGGNSPVQEFTVPGRVYTATISGLKPGVDYTITVYAVTDFFNWATHEYIYHSTPISINYRTEIDKPSQ
B2: E88 (designed binder)
10Fn3 domain: MGVSDVPRDLEVVAATPTSLLISWSATNKTYQYYRITYGETGGNSPVQEFTVPGGVRTATISGLKPGVDYTITVYAVTDYFNPTTHEYIYQTTPISINYRTEIDKPSQ
B3: E92 (designed binder)
10Fn3 domain: B2 10Fn3 domain with S25Q, T27A, K29H, T30S, Y80F, T84V, I89K, Q91R, T93I
B4: E50 (designed binder)
10Fn3 domain: MGVSDVPRDLEVVAATPTSLLISWTVGLSVYQYYRITYGETGGNSPVQEFTVPGMVSTATISGLKPSVDYTITVYAVTDYKPHADGPHTYHEYPISINYRTEIDKPSQ
B5: E94 (designed binder)
10Fn3 domain: B4 10Fn3 domain with T25N, V26N, L28G, S29R, V30N, G54Y, M55D, S57Y, S67G
B6: E93 (designed binder)
10Fn3 domain: B4 10Fn3 domain with T25D, V26S, L28R, S29G, V30S, M55G, S57R, S67G
B7: E18 (designed binder)
10Fn3 domain: B4 10Fn3 domain with T25F, G27T, L28H, S29V, V30A, M55G, V56L, S67G, Y93S
B8: E24 (designed binder)
10Fn3 domain: MGVSDVPRDLEVVAATPTSLLISWQVPRPMYQYYRITYGETGGNSPVQEFTVPGQVPTATISGLKPGVDYTITVYAVTDSYNPATHEYKYHQTPISINYRTEIDKPSQ
B9: E51 (designed binder)
10Fn3 domain: B8 10Fn3 domain with Q25G, V26G, P27H, P29A, M30V, Q55A, P57Y, S80Y, A84D, T93Y
B10: E53 (designed binder)
10Fn3 domain: B8 10Fn3 domain with Q25S, P27G, R28G, P29M, M30I, Q55M, P57T, S80Y
B11: E57 (designed binder)
10Fn3 domain: B8 10Fn3 domain with Q25I, P27Q, R28G, P29G, M30R, Q55M, P57T, S80Y, A84S
B12: E47 (designed binder)
10Fn3 domain: B8 10Fn3 domain with Q25N, V26P, P27A, R28S, P29K, M30D, S80F, H91D, Q92S
B13: E95 (designed binder)
10Fn3 domain: B8 10Fn3 domain with Q25V, R28Q, P29G, Q55G, P57S, S80Y, Y81F, K89N, Q92S, T93I
B14: E55 (designed binder)
10Fn3 domain: B8 10Fn3 domain with Q25S, P27G, R28Q, P29V, M30F, G54Y, Q55D, P57Y, S80Y
B15: E25 (designed binder)
10Fn3 domain: MGVSDVPRDLEVVAATPTSLLISWGYQSGGYTYYRITYGETGGNSPVQEFTVPHDLRTATISGLKPGVDYTITVYAVTDYAYKEYQEHPISINYRTEIDKPSQ
B16: E28 (designed binder)
10Fn3 domain: MGVSDVPRDLEVVAATPTSLLISWNPGSKSYQYYRITYGETGGNSPVQEFTVPGGVRTATISGLKPGVDYTITVYAVTDFYNPDTHEYLYNQYPISINYRTEIDKPSQ
B17: E26 (designed binder)
10Fn3 domain: MGVSDVPRDLEVVAATPTSLLISWWIGIPVYQYYRITYGETGGNSPVQEFTVPYDGKTATISGLKPGVDYTITVYAVTDMMHVEYAEYPISINYRTEIDKPSQ
B18: E20 (designed binder)
10Fn3 domain: MGVSDVPRDLEVVAATPTSLLISWMTSPSVYQYYRITYGETGGNSPVQEFTVPGPVQTATISGLKPGVDYTITVYAVTDYKEHQHAPHQYTAHPISINYRTEIDKPSQ
B19: E56 (designed binder)
10Fn3 domain: MGVSDVPRDLEVVAATPTSLLISWYSGDYHYQYYRITYGETGGNSPVQEFTVPHDLETATISGLKPGVDYTITVYAVTDYYNPATHYYKYEQTPISINYRTEIDKPSQ
B20: E89 (designed binder)
10Fn3 domain: MGVSDVPRDLEVVAATPTSLLISWDDPAANRQYYRITYGETGGNSPVQEFTVPYDLRTATISGLKPGVDYTITVYAVTDYYNPATHQYKYSQSPISINYRTEIDKPSQ
B21: E52 (designed binder)
10Fn3 domain: MGVSDVPRDLEVVSATPTSLLISWQVPRPMYQYYRITYGETGGNSPVQEFTVPGGVRTATISGLKPGVDYTITVYAVTDYWFKEYREDPISINYRTEIDKPSQ
B22: E27 (designed binder)
10Fn3 domain: MGVSDVPRDLEVVAATPTSLLISWSKGSKSYQYYRITYGETGGNSPVQEFTVPYHVYTATISGLKPGVDYTITVYAVTDYYNPATYEYIYLTTPISINYRTEIDKPSQ
B23: E29 (designed binder)
10Fn3 domain: B22 10Fn3 domain with S25Q, K26P, S28T, K29T, S30H, H55D, V56L, Y57M, A84N
B24: E31 (designed binder)
10Fn3 domain: B22 10Fn3 domain with S25T, K26Y, G27N, S28D, K29G, H55A, Y80F, L91H
B25: E30 (designed binder)
10Fn3 domain: MGVSDVPRDLEVVAATPTSLLISWAIGTIVYQYYRITYGETGGNSPVQEFTVPAGVYTATISGLKPGVDYTITVYAVTDYYDWATHEYNYHTAPISINYRTEIDKPSQ
B26: E58 (designed binder)
10Fn3 domain: MGVSDVPRDLEVVAATPTSLLISWSAVRWRYQYYRITYGETGGNSPVQEFTVPGGVRTATISGLKPGVDYTITVYAVTDFYNPRTHVYIYDQFPISINYRTEIDKPSQ
B27: E49 (designed binder)
10Fn3 domain: MGVSDVPRDLEVVAATPTSLLISWHSGPREYQYYRITYGETGGNSPVQEFTVPGQVYTATISGLKPGVDYTITVYAVTDFFNPITHYYYYELTPISINYRTEIDKPSQ
B28: E46 (designed binder)
10Fn3 domain: MGVSDVPRDLEVVAATPTSLLISWQVGSVVYQYYRITYGETGGNSPVQEFTVPRDVLTATISGLKPGVDYTITVYAVTDYKPKPDGPHIYQAVPISINYRTEIDKPSQ
B29: E91 (designed binder)
10Fn3 domain: MGVSDVPRDLEVVAATPTSLLISWSAPWRTYQYYRITYGETGGNSPVQEFTVPYDVYTATISGLKPGVDYTITVYAVTDYLNPNTLEYTYQRIPISINYRTEIDKPSQ
B30: E86 (designed binder)
10Fn3 domain: MGVSDVPRDLEVVAATPTSLLISWDSGENNYQYYRITYGETGGNSPVQEFTVPGGVRTATISGLKPGVDYTITVYAVTDYYNPKTHEYNYLTIPISINYRTEIDKPSQ
B31: E90 (designed binder)
10Fn3 domain: MGVSDVPRDLEVVAATPTSLLISWYWEGLPYQYYRITYGETGGNSPVQEFTVPRDVNTATISGLKPGVDYTITVYAVTDWYNPDTHEYIYHTIPISINYRTEIDKPSQ
B32: E87 (designed binder)
10Fn3 domain: MGVSDVPRDLEVVAATPTSLLISWGSPLIEYQYYRITYGETGGNSPVQEFTVPGGLSTATISGLKPGVDYTITVYAVTDYFNPATHEYTYHVSPISINYRTEIDKPSQ
B33: E54 (designed binder)
10Fn3 domain: MGVSDVPRDLEVVAATPTSLLISWKASYTGYNYYRITYGETGGNSPVQEFTVPRDVMTATISGLKPGVDYTITVYAVTDFYNPDTHQYTYRRIPISINYRTEIDKPSQ
B34: E19 (designed binder)
10Fn3 domain: MGVSDVPRDLEVVAATPTSLLISWETESNAYQYYRITYGETGGNSPVQEFTVPGQIYTATISGLKPGVDYTITVYAVTDYKPHADGPHTYHESPISINYRTEIDKPSQ

What was measured:
Assay in all cases: cell-based or functional assay
[1] = molecular target: T1, EGFR on the surface of human tumour cells (A431, H292) (human, UniProt P00533 25-1210)
[2] = molecular target: T1, EGFR on the surface of human tumour …; remark: listed apart in the source
[3] = molecular target: T1, EGFR on the surface of human tumour …; remark: listed apart in the source

Binder	% inhibition of EGFR phosphorylation at 100 nM binder, cell-based assay [1] [%]	% inhibition of EGFR phosphorylation at 100 nM binder, cell-based assay [3] [%]	also measured
B1	88.6	–	–
B2	–	–	% inhibition of EGFR phosphorylation at 100 nM binder, cell-based assay [2]: 89.3%
B3	–	–	% inhibition of EGFR phosphorylation at 100 nM binder, cell-based assay [2]: 88.5%
B4	77.4	–	–
B5	–	–	% inhibition of EGFR phosphorylation at 100 nM binder, cell-based assay [2]: 78.7%
B6	–	–	% inhibition of EGFR phosphorylation at 100 nM binder, cell-based assay [2]: 76.9%
B7	–	91.1	–
B8	–	90.3	–
B9	82.8	–	–
B10	79.8	–	–
B11	75.5	–	–
B12	76.9	–	–
B13	–	–	% inhibition of EGFR phosphorylation at 100 nM binder, cell-based assay [2]: 98%
B14	99.1	–	–
B15	–	77.1	–
B16	–	85.3	–
B17	–	75.4	–

Binder	% inhibition of EGFR phosphorylation at 100 nM binder, cell-based assay [1] [%]	% inhibition of EGFR phosphorylation at 100 nM binder, cell-based assay [3] [%]	also measured
B18	–	80.2	–
B19	84.2	–	–
B20	–	–	% inhibition of EGFR phosphorylation at 100 nM binder, cell-based assay [2]: 82.6%
B21	75.3	–	–
B22	–	94.6	–
B23	–	87.9	–
B24	–	75.8	–
B25	–	87.3	–
B26	79.7	–	–
B27	83.5	–	–
B28	77	–	–
B29	–	–	% inhibition of EGFR phosphorylation at 100 nM binder, cell-based assay [2]: 84.7%
B30	–	–	% inhibition of EGFR phosphorylation at 100 nM binder, cell-based assay [2]: 84.7%
B31	–	–	% inhibition of EGFR phosphorylation at 100 nM binder, cell-based assay [2]: 81.3%
B32	–	–	% inhibition of EGFR phosphorylation at 100 nM binder, cell-based assay [2]: 87%
B33	76.1	–	–
B34	–	84.6	–

Source: patent US20180037631A1 (Bristol-Myers Squibb, published 2018)
